# Laboratory results taken from the nanobody polyreactivity screen of Harvey et al. (2022).
# Experiment: yeast display, Sf9 membrane polyspecificity reagent, FACS + sequencing; frameworks hold sequencing errors
# In short: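 Sorting gates, low and high (top ~1%), were placed on anti-HA fluorescence to track expression and on streptavidin fluorescence to track reagent binding. A clone's polyreactivity label is taken from the gate it came out of. The reagent was 10% biotinylated, detergent-solubilized Sf9 membrane, applied for 1 hour at 4 °C to galactose-induced yeast display cells.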
row,Sequence,polyreactivity (PSR sort gate)
1,QVQLVESGGGLVQAGGSLRLSCAASGSTFSKNTMGWYRQAPGKERELVAAITTRGSSTYYADSVKGRFTISRDNAKNTVYLQMNSLKPEDTAVYYCAAGRYGWKHVWYYYWGQGTQVTVSS,high polyreactivity
2,QVQLVESGGGLVQAGGSLRLSCAASGSTFGNYAMGWYRQAPGKERELVATISRSGGSTYYADSVQGRFTISRDIAKNTVNLQMNSLKPEDTAVYYCNRRYYTRKPDYNSWGQGTQVTVSS,high polyreactivity
3,QVQLVESGGGLVQAGGSLRLSCAASGFTFGWYAMGWYRPAPGKERELVAAITTSGGRTNYADSVKGRFTISRDNAKNTVYLQMNSLKPEDTAVYYCNADSPYYVGGFDYWGQGTQVTVSS,low polyreactivity
4,QVQLVESGGGLVQAGGSLRLSCAASGRTFTYYAMGWYRQGPGKESELVAAITSGGRTYYADSVKGRFTISRDNAKNTVYLELNSLKPDDTAVYYCADRRIRDYYRSYDYWGQGTQGTVSS,high polyreactivity
5,QVQLVESGGGLVQAGGSLRLSCAASGRIFFYYAMGLYRQATGKERELVAAITDSVDSTYYADSVKGRFTISRDNAKNTVYFQMKSLKPEDTAVYYCATDVDWAYGYHYEYWGQGPQVTVSS,low polyreactivity
6,QVQIVESGGGLVQAGGSLRLSCAASGSIFRYYAMAWYRQETGKERELVARISSGVSTNYADSVKGRFTISRDNAKNSVYLQMNSLKPEDTAVYYCNARTGWTGRGRYSLRYDYWGQGTQVTVSS,high polyreactivity
7,QVQLVESGGGLVQAGGSLRLSCAASGSIFTYNGMGWYRQAPGKEREFVAAITWTGGSTYADSVKGRFTISRDNAKNTVYLQMNSLKPEDTAVYYCAAVRRISWYTPVNTRRYYYWGQGTQVTVSS,high polyreactivity
8,QVQLVESGGGLVQAGGSLRLSCDASGRTFAYYAMGWYRQAPGKERELVAAISNGGSTYYADSVKGRFTISRDNAKNTVYLQMNRLKPEDTSVYYCNAYYSDLYDYWGQGTQVTVSS,low polyreactivity
9,QVQLVESGGGLVQAGGSLRLSCAASGSISYYNAMGWYRQAPGKERELVATITDSGGSTYYADSVKGRFTISRDNAKNTVYLQMNSLKPEDTAVYYCAVDYSEWYSIYDYWGQGTQVTVSS,low polyreactivity
10,QVQLVESGGGLVQAGGSLRLSCAASGRSFCSYAMGWYRHAPGKERELVAAITSGGSTNYADSVKGRFTISRDNAKNTVYLQMNSLKPEVTAVYYCAAVEYLRESDYWGQGTQVTVSS,low polyreactivity
11,QVQLVESGGGLVQAGGSLRLSCAASGTIYVTNGMGWYRQAPGKERELVAVISWGGGNTYYADSVKRRFTISRDNAKNTVYLQMNILKPEDTAVYYCAADPISEFYWGVKDRYDYWGQGTQVTVSS,low polyreactivity
12,QVQLVESGGGLVQAGGSLRLSCAASGLTISYYAMGRYRQAPGKERELVAAISTDSSTNYADSVKGRFTISRDNAKNTVYLQMNSLKPEDTAVYYCAAVPRGTQCAMDYWGQGTQVTVSS,low polyreactivity
13,QVQLEESGGGLVQAGGSLRLSCAASGSTFTFNAMGWYRQAPGKERELVAVISSGGSTYYAESVKGRFTISRDNAKNTFYLQMNSLKPEDTAVYYCNKVYGYFGQYYLRYNYWGQGTQVTVSS,low polyreactivity
14,QVQLVESGGGLFQAGGSLRLSCAASGRIFGSYAMGWYRQAPGKERELVAAIFSAGSTYYADSVKGRFTISRDNAKNTVYLQMNSLKPEDTAVYYCAAGAYWPWGEDYWGQATQVTVSS,high polyreactivity
15,QVQLVESGGGLVQAGGSLRLSCAASGRIFIRAMGCYTQAPGKERELVAGITNGGITYYADSVKGRFTISRDNAKTTVYLQMNSLKPEDTAVYSCNARSRSVLYKYDYWGQGTQETVSS,low polyreactivity
16,QVQLVESGGGLVQAGGSLRLSCAASGSTFVANVMGWYRQAPGKERELVATINSTSGSTYYADSVKGRFTISRDNAKNTVYLQMNSLKPEDTAVYYCNATHEGFELDYWGQGTQVTVSS,low polyreactivity
17,QVQLVESGGGLVQAGGSLRLSCAASGRIFRIYAMGWYRQAPGKERELVAAISWSGGRTYYADSVKGRFTISRDNAKNTVYLQMNSLIREDTAVYYCNADSYSRRGFEYDYWGQGTQVTVSS,high polyreactivity
18,QVRLLETGGGLVQAGGSLRLSCAPSGSTFTDYDMGWYRPAPGKERELVAAITSGGSTNYADSVKGSFTISRDNAKNTVYLQMNRLKPEDTAVYYCAASYWDTEPGYREYDYWGQGTLVTVSS,low polyreactivity
19,QDQLGESGGGVVQAGGSLRLSCAAYGRTLHYYAMGWYRQAPGKERELVAGIRDSGGSTYYADSVKGRFTISRDNEMNTVYFLMNSLKPEDTAVYYCAARSHRRLMYYWGQGTQVNVSS,high polyreactivity
20,QVQLVESGRGLVQAGGSLRLSCAASGRTFVYYAMGWYRQAPGKERELVAAISRSGSTYYADSVKGRFTISRDNAKNTVYLQMNSLKPEDTAVYYCARPGGPDRTSSPYPYPYGYWGQGTQVTVSS,low polyreactivity
21,QVQLVESGGGLVQAGGSLRLSCAASGSTFGRNTMGWYRQAPGKERELVAAITSCDTTTYADSVKGRFTISLDNAKNTVYIQMNSLKPEDTAVYYCAVDPVRGLDYSWMDYWGQGTQVTVSS,low polyreactivity
22,QVQLVESGGGLVQAGGSLRLSCAASGRIFFVYAMGWYRQAPGKERELVAAITASGGSTYYADSVKVRFTISRDNAKNSVYLQMNSLNPEDTAVYDCAAAGYGWGGYREYGWGQGTQVTVSS,low polyreactivity

row,Sequence,polyreactivity (PSR sort gate)
1,QVQLVESGGGLVQAGGSLRLSCAASGLTFYVNAMGWYRQAPGKEMELVAAITRGGSTNYADSVKGRFTISRDNAKNTVYLQMNSLKPVDTAVYYCNARKRYHSRYSGGYREGYWGQGTQVTVSS,low polyreactivity
2,QVQLVESGGRLVQAGGSLRLSCAASGRTFEIYSMGRYRHAPGKERELVAAITSGGSTYYADSVKGRFTISRDNAKNTVYLQMNSLKPEDTAVYYCNAYLYYDAHGVDYWGQGTQVTVSS,high polyreactivity
3,QVQLVESGGGLVQAGGSLRLSCAASGSTFVVYAMGWYRQAPGKEREFVAAITYRGGRTYYADSVKGRFTISRDNAKNTVYLQMNSLKPEDTAVYYCNAPIVRSGYVRSIPAVYYSYYYWGQGTQVTVSS,high polyreactivity
4,QVQLVESGGGLVQAGGSLRLSCAASGRIFPYNVMGWYRQAPGKERELVAAISWSGGRTYYADSVKGRFTISRDNAKKTVYLQMNSLKPEDTAVYYCNTRTLVAMGYWGQGTEVTVSS,high polyreactivity
5,QVQLVESGGGLVQAGGSLRLSCAASGRTFFRYVMGWYRQAPGKERELVAAISRSGGSTYYADSVKGRFTISRDNAKITVYLQMNSLKTEDTAVYYCNSVARSTVVPTEFDYWGQGTQVTVSS,high polyreactivity
6,QVQRVESGGGLVQAGGCLRLSSAASGFIFRYNDMGWYRQAPGKERQLVATITGSGTSTYYADSVKGRFTISRDNAKTTVYLQMNSLKPEDTAVYYCAAVTSYWYWYVGYDYWGQGTQVTVSS,high polyreactivity
7,QVQLVESGGGLVQAGGSLRSSCASSGSIFDGNTMGWYRQAPGKERELVAAISYSGGSTYYADSVKGRFTISRDNAKNTVYLQMNSLKPEDTAVYYCAAEWYGYQEDDYWGQGTQVTVSS,low polyreactivity
8,QVQLVESGGGLVQAGGSLRLSCAASGSIFNSYAMGWYRQAPGKERELVAAISSGGGRTYYAVSVKGRFKISRDNAKNTVYLQMNSLKPEDTAVYYCAKYYRAFIRDYNYWGQGTQVTVSS,high polyreactivity
9,QVQLVESGGGLVQAGGSLRLSCAASGLIFWAYAMGWYRQAPGKERELVAAISWSGARTYYADSVKGRFTISRDNAKNTVYLQMNSLKPEDTAVYYCAAGVSSSSSGYEGDYWGQGTQVTVSS,high polyreactivity
10,QVQLVESGGGLVQAGGSLRLSCAASGSIFDINAMGWYRQAPGKERELVAVITDSGSTYYADSVKGRFTISRDNAKNTVYLQMNSLKPEDTAVYYCAAESSLLFFLMDYWGQATQVTVSS,low polyreactivity
11,QVQLVESGGGLVQAGGSLRVSCAASGFIIIGYVMGWYRQSPGKERELVAAITSSGGSTYYADSVKGRFTISRDNAKNTVYLQMNSLKPEDTAVYYWNADIYISPLVQVSKGYDYWGQGTQVTVSS,low polyreactivity
12,QVQLVESGGGLVQAGGSLRLSCAASGFTFYVYTMGWYRQAPGKERELVAAITWSGGSTYYADSVKGRFTISRDNAKNNVYLQMNSLKPEDTAVYYCNRVGYWVGHDSWGQGTQVTVSS,high polyreactivity
13,QVHLVESGGGLVQAGGSLRLSCAASGSISTNYPMGWYRPAPGKERQLVAAISSSGGSTYYADSVKGRFTISRDNAKYTVYLQMNSLKPEDTAVYYCAATYWGRAYQGYRNLRYGYWGQGTQVTVSS,high polyreactivity
14,QVQLVESGGGLVQAGGSLRLSCAASGFIFKDYAMRWYRHSPGKERELVAAITSGVSTNYADSVKGRFTISRDNAKNTVYLQMNSLKPEDTAVSYCNAKARLAGWWLFRLEYWGQGTQVTVSS,low polyreactivity
15,QVQLVESGGGLVQAGGSLRLSCAASGSIFLGNAMGWYRQAPGKESELVAAISSITGRTYYADSVKGRFTISRDNAKNTVYLQMNSLKPEDTAVYYCNKVKRSFIVNTDDYWGQGTQVTVSS,high polyreactivity
16,QFQLVESGGGLVQAGGSLRLSCAASGRIFSLNAMGWYRQAPGKESELVAAITSTGGTTYYADSVKGRFTISRDNAKNTVYLQMNSLKPEDTAVYYCAADYYSYAWHGWYYSDHYDYWGQGTQVTVSS,low polyreactivity
17,QVQLVESGGGIVQAGGSLRLSCAASGSIFGVYAMGWYRQAPGKERELVAAISSSGGRTYYADSVKGRFTISRDNAKNTVYLQMISLKPEDTAVYYCAAVPWRRSTRYDYWGQGTLVTVSS,high polyreactivity
18,QVQLVESGGGLVQAGGSLRLICAASGSIFDVNAMGWYRQAPWKERELVAAISDSGGSTYYADSVKGRFTISRDNAKITVYLQMNSLKPEDTAVYYCNAVWSWYNYDDFDYWGQGTQVTVSS,low polyreactivity
19,QVQLVESGGGLVQAGGSLRLSCAASGRTFSSNAMGWYRQAPGKEREFVAVISSGGSTYYADSVKGRFTISRDNAKNTVYLQMNSLKPEDTAVYYCAAAVGPSGYYYESDYWGQGTQVTVSS,high polyreactivity
20,QVQLGESGGGLVQAGGSLRLSCAASGRTFDYYAMGWYRQAPGKEWQLVAAISGSGGTTYYADSVKGRFTISRENAKNTVYLQMNSLKAEDTAVYNCDTVRSRLFGQYYYWGQCTQVTVSS,high polyreactivity
21,QVQLVESGGGLVQAGGSLRLSCAASGIIFAYYAMGWYRQAPGKERELVAAISWSGTSTYYADSVKGRFTISRDTATNTVYLQMNSLKPEDTAVYYCNAYGLYSDMDYWGQGTQVTVSS,high polyreactivity
